From a protein production outcome set (Wang et al. 2014)

Assay: label from the status in PepcDB records

## MSLNGKTMFISGASRGIGLAIAKRAAQDGANIALIAKTAEPHPKLPGTVYTAAKELEEAGGQALPIVGDVRDPESVEAAVAKTVEQFGGIDICVNNASAINLGPITEVPMKRFDLMNGIQVRGTYAVSQACIPHLKGRENPHILTLSPPVLLGKEWLKPTAYMMAKFGMTLCALGIAEEMREAGIASNTLWPRTLVATAAVQNLLGGDEAMGRARKPEVYSDAAYVILNKPAREFTGNMLLCEDVLVESGVTDLSVYNCVPGSQLGVDFWVDGVNPPGYTGP
  protein production: failed

## MSLNIEEWEEYRYVEAGIKESITLIEDPGLKKMVEHVCHSGGKRIRPIILLLVSEICSGSYSRSLNAALAVEMMHSASLIHDDLLDQGLVRRNLPSAPEKFGPSGALLCGDYLIAKSIAFISPYGEKVIQDFGKAGMDMAEGEVLDLKLEDESFGENDYFKCIYKKTASLFAISASIGAYTGGAEEELAERFSHFGNALGTAYQIVDDILEFLEVVEGKESKFTSETLPHIYMKSTSKEEALKKSIDCVKLHVAAAKETLETFRECPARDKLFQITDYITVDMLENLEGHHHHHH
  protein production: not failed

## MSLNNQDISIGKLSRLKIWITDNHLSDDQWSNTKKFIIIKITTEDGIEGWGEAFSINFREKGIAIIIKELFREISNIPNLSIKSFYNKISLLSDGHRGLDFSSATSAIEIALWDISGKLKNLPLNSLLTKSPKPNVPIYATCWSDLKKDTNDYLRQIEKFYGKKYGGIKIYPMLDSLSISIQFVEKVREIVGDELPLMLDLAVPEDLDQTKSFLKEVSSFNPYWIEEPVDGENISLLTEIKNTFNMKVVTGEKQSGLVHFRELISRNAADIFNPDISGMGGLIDIIEISNEASNNGIFISPHCWNSMSVSASAMLHVCSSIPNSEKAEIFPDYINFSKKFCELPFDIIDNKAHINKSAGLGIVIHEDILSELSIYSLDEKSNDEGHHHHHH
  protein production: not failed

## MSLNRFTKTSQGRSWNTGNGSPDAICFAVDKPGIVVVGFAVYGGGGIHEYELEVLVDDSEHAGDSTHSHRWTSLELVKGTYTTDDSPSDIAEIRLDKVVPLKENVKYAVRLRNYGSRTANGDGGMTTVQCPDGVTFTFSTCSLSSNGTNQTRGQIPQILYYRSEEGHHHHHH
  protein production: not failed

## MSLPISLTDFFPIQGGMATRMVIEGANFGTDLSQIKVFFNQKEASILNVKNSIIYLLVPKLPGNDCIVTVKVGNQEARFTRNFQYIENYSVTTIAGQPGTNLFVEGTLAAAQFGPVQHLAIDDENNLFITERNGSDGKGTCSVLNEESGTVTFLFKASDNLNVPTVNAQTQNVYIPLDGGYTFYELNPVNQWIAKSRLVLHPSKEQQEAGMDDFEINWKHSLAFSRYDNMIYTRSYGGDLIKVDPETRVGQKIGNFFPNTDSFIVAHPTQPEILYIAYAAKHVIYTYNIETGEHKLFAGAFGQSGWNDGIATDAEFNSPRQMSLDMEGNIYIADSGNHCIRMIDKNGIVTTPIGQPGEAGYADGSPDMALLNDPRGVAVNSEGDVYIADLGNRCIRKLTLQLEHHHHHH
  protein production: not failed

## MSLQLLIAQVLLLLLGSLGISAAAPDLIVKHGLRALLAVALTFAVARIRPRTLLKWGTNVWIVALVLLVLVLFIGQGSQDSPGVRRWLSIAGQEFQPSEFAKLALVLQLASFFSRRGVQNKLLSATGMIIATTALVIFEPDLGTSVLTFGLGIIVMYAAGVRLFNIGGLVLALGLFSLPFVNSYLESHPYILKRWTGHQVRDDGVVTGLDQIGMAHRDLNYGGWWGQGPDGPRWEYFAAHTDMVVAAVGFSSGLLGVLTLLFAYWLIVSTALQVAQLATRIRPMSAEIHGASILAIGCMFLVVGQAFVNLAVAAGLFPVTGVPLPLVSYGFSSMLTMSVALGIIHSAMREVRRQLPVEVKMDDFVGAAADD
  protein production: failed

## MSLRARIHSPEEHGSRGEDGHLVASYRAKLLEEIDLAEMSALATAERRARLERVLGHIISREGPVLSTVERSQLIRRVVDEALGLGILEPLLEDASITEIMVNGPDAIFVERAGRVEQLPLRFASHDQLMQTIERIVSTVNRRVDESNPMVDARLPSGERVNVIIPPLSLTGATLTIRRFPRSFTLQELIGLGSLDENMLYLLAGLVQARFNIIVSGATGTGKTTLLNALSGLIPESDRIITIEDSAELQLQQAHVIRLESRPPNVEGQGRITIRDLVRNSLRMRPDRIVVGEVRGGESLDMLQAMSTGHDGSLATVHANSAEDALMRLQTLASMSDVEIPFVALHDQINSSVDVLIQLTRFADGARRITEIALLASHGGEPYRLATVARFNARPMSADGRVVGAYEYHPLPHRTAERLYMAGQPIPQAFGVAHTPDQLTTREAR
  protein production: failed

## MSLRGELRVGLEPGYLPFEMKDKKGNVIGFDVDLAREMAKAMGVKLKLVPTSWDGLIPGLVTEKFDIIISGMTISQERNLRVNFVEPYIVVGQSLLVKKGLEKGVKSYKDLDKPELTLVTKFGVSAEYAAKRLFKNAKLKTYDTEAEAVQEVLNGKADMFIFDLPFNVAFMAQKGQGYLVHLDTSLTYEPLGWAIKKGDPDFLNWLNHFLAQIKHDGSYDELYERWFVDTKWLEKIQEGHHHHHH
  protein production: not failed

## MSLRLADFGFTDGINEIIAITENEDGSWNAAPIGIIVEDSSSDTAKAKLYRNRTRANLERSGVLFANVTDDALVFAVSSFGNLNDDWYASPNPPIIKGAMAWCRFEAEMRSGVAHLKLTDGEIIEKRVRAINRGLSAVIEALVHATRYVAIKSDERRKELLERIHYYREIVQKCGSEREKRAFEIIMEKIGEGHHHHHH
  protein production: not failed

## MSLRVILFDLDGTLIDSAKDIALALEKTLKELGLEEYYPDNVTKYIGGGVRALLEKVLKDKFREEYVEVFRKHYLENPVVYTKPYPEIPYTLEALKSKGFKLAVVSNKLEELSKKILDILNLSGYFDLIVGGDTFGEKKPSPTPVLKTLEILGEEPEKALIVGDTDADIEAGKRAGTKTALALWGYVKLNSQIPDFTLSRPSDLVKLMDNHIVEFEGHHHHHH
  protein production: not failed

## MSLSAMPAALSFAGLAGWAEEDHLAALNAFRAGCGVSKDPAAARVCGLAKATKDLDVSGAKAFIEANFRVEAVDGGGDGLLTAYFAPQYEARMSRNAEFSAPLRGLPADLVVLDLGPFEPALVGKKITGHVEGSTFVPYPDRAEIEATPSDKPLAWMRPEELFFLQIQGSGVLVLPDGRRVRAVFAGTNGKPFVGIAIAMRDKGLLPDNNTSADAIRTWLAEHRGPEADAIMRLNPRYVFFRTVPDDGKEPAGAAGVALPPGRAIAVDPGYHAYGGFYWLDAAAPKLVGAFPVYRRAVTALDTGGAIKGEVRADLYMGSGAVAGVEAGRVRHTLRLYRLTPNPEGHHHHHH
  protein production: not failed

## MSLSDDSTFGDATFVVLDFETTGLDPQVDEIIEIGAVKIQGGQIVDEYHTLIKPSREISRKSSEITGITQEMLENKRSIEEVLPEFLGFLEDSIIVAHNANFDYRFLRLWIKKVMGLDWERPYIDTLALAKSLLKLRSYSLDSVVEKLGLGPFRHHRALDDARVTAQVFLRFVEMMKKEGHHHHHH
  protein production: not failed

## MSLSEYRRKRSFDKTREPEPGKTLPPGQRAIFVVQLHHASRRHYDFRLQVGDALKSWAVPKGPSYDPKVKRMAVEVEDHPVDYASFEGEIPRGEYGGGHVAQFDHGVWATAGDPEAQLAKGHLRFELFGNKLKGGWHLVRSGKPARQPQWLLFKEDDAYAGTLEADDLLADVAATPADDVRRAGAGKTQRKGLTTVPPPAAKKRGTWAKQALALSGARRAEMEDAPFAPQLAKLVQSPPEGAQWLHEIKWDGYRILATVTNGKVRLWSRNALEWTDKTPEIADAIQSLGLRNAQIDGELIAGRGTKEDFNLLQATLSGERQVPLALAVFDLLHVDGVDISEAPLRERKQLLQQVLQAAPHMHLAYSSHVEGDGTEAFRVAGEQHFEGIISKRADRPYRDGRSDDWRKTKQLASQEYAVVGYTAPKGSRSGFGSLLLATPDPVHGWLYVGRVGSGFSDALMREVTQQLEGGGRKPTAHIPTPDTDLRGATWFAPRFVVEVFYRGIGGQQLLRQASFKALRPDKRIADLADSDAGNGRSTSSSTQRSAKTRAAKNAATQVAKRAATRATAPARKSAVATPSSAALPTLSSPTKLIYPDIRATKGDVWDYYQAVMDHLLPQIVGRPLSIIRCPSGAEKPCFFQKHHTAGLERVSSVKLTEETGTNAYYLVIEDAPGLLELVQFNALEFHPWGSHADRPDVADRVVFDLDPGPDVPFAEVKRAANDIRKLLAQLELESFLRVSGGKGLHVVVPLNPGCDWEVTKRFAKGFADALAQAEPQRFIATATKRLRNKRIFVDYLRNGRGATAVASYPLRGRPGAPVALPLAWSDLSKLQRADAFTLRDVPEKLRRRRKDPWADMDRIRQNLARWAEQDED
  protein production: failed
